Experimental findings from patent EP4640709A1 are described below.

The target in assay [1] is mouse CX3CR1 (mouse) (UniProt Q9Z0D9). Briefly: flow cytometry, chimeric CX3CR1-expressing Ba/F3 cells.
Assay [2] concerns the target human CX3CR1 (human) (UniProt P49238). Kind of assay: flow cytometry, chimeric CX3CR1-expressing Ba/F3 cells, 200 nM, grade vs positive antibody (+++ >70%, ++ 40-70%, + 10-40%, - <10%). A general note: A flow cytometer gives signals particle by particle.
For assay [3], the target named is cynomolgus monkey CX3CR1 (cynomolgus monkey). Kind of assay: flow cytometry, CX3CR1-expressing Ba/F3 cells.
Assay [4] addresses human CX3CR1 (human) (UniProt P49238). Kind of assay: flow cytometry, CX3CR1-expressing Ba/F3 cells.
For assay [5] the target is unchanged. Briefly: flow cytometry, chimeric CX3CR1-expressing Ba/F3 cells.
For assay [6], the target named is mouse CX3CR1 (mouse) (UniProt Q9Z0D9). Briefly: flow cytometry, chimeric CX3CR1-expressing Ba/F3 cells, 200 nM, grade vs positive antibody (+++ >70%, ++ 40-70%, + 10-40%, - <10%).
Assay [7] has the same target. Kind of assay: flow cytometry, CX3CR1-expressing Ba/F3 cells, 200 nM, grade vs positive antibody (+++ >70%, ++ 40-70%, + 10-40%, - <10%); this antibody is itself the 100% reference.
The target of a further assay is rat CX3CR1 (rat) (UniProt P35411). Described as above.
Sequence of rat CX3CR1 (rat) (P35411 whole entry): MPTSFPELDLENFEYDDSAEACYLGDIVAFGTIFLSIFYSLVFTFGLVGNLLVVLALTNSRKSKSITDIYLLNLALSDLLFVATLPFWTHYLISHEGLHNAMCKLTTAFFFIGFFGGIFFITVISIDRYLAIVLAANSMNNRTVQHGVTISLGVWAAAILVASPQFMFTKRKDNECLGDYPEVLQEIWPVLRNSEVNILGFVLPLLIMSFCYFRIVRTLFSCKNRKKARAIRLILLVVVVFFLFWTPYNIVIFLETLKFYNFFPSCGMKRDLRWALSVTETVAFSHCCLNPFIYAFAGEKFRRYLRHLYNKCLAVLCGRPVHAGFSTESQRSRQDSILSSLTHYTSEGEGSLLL

Sequence of human CX3CR1 (human) (P49238 whole entry): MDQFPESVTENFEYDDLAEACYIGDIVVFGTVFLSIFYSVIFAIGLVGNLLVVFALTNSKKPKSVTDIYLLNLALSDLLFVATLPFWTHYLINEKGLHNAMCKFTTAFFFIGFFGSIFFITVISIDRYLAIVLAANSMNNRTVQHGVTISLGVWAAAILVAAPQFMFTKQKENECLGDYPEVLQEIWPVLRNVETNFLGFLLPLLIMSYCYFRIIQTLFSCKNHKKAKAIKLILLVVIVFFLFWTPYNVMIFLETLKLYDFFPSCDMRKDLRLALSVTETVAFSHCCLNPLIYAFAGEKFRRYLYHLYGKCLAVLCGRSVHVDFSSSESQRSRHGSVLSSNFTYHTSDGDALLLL
Sequence of mouse CX3CR1 (mouse) (Q9Z0D9 whole entry): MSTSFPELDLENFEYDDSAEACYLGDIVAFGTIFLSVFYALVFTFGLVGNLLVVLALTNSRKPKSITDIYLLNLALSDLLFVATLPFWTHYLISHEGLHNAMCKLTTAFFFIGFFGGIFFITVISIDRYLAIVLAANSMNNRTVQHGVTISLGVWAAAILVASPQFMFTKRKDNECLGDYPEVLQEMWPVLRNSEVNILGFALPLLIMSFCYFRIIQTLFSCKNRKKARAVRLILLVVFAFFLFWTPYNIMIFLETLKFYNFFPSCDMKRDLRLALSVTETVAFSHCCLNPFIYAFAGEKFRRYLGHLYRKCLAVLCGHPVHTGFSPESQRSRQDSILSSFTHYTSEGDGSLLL

“anti-hCX3CR1 antibody K0124E1 (Biolegend)”: the relative value (% reactivity, MFI) compared to positive antibody at 200 nM was under 10% with mouse CX3CR1 (mouse) [1] and 40 to 70% with human CX3CR1 (human) [2].
Regarding “anti-mouse CX3CR1 antibody SA011F11 (Biolegend)”, the relative value (% reactivity, MFI) compared to positive antibody at 200 nM was under 10% in assay [3]; under 10% with human CX3CR1 (human) [4]; under 10% in the assay with human CX3CR1 (human) [5]; over 70% with mouse CX3CR1 (mouse) [6]; over 70% in the assay with mouse CX3CR1 (mouse) [7]; over 70% with rat CX3CR1 (rat).
